The text below walks through data of patent EP0842426B1.

Holding throughout (test): cell-based or functional assay
Assay [1] deals with ecotropic MLV receptor (mouse) (UniProt Q09143).
Assay [2] concerns the target amphotropic MLV receptor on NIH3T3 mouse fibroblasts (mouse) (UniProt Q80UP8).
The target in assay [3] is human epidermal growth factor receptor (human) (UniProt P00533).
Assay [4] addresses amphotropic receptor on human B and T cell lines (K422 and Jurkat) (human) (UniProt Q08357).
In assay [5] the target is EGF receptor on NIH3T3 cells and NIH3T3 clones transfected with EGF receptor expression constructs.

ecotropic MLV receptor (mouse), sequence (Q09143 whole entry): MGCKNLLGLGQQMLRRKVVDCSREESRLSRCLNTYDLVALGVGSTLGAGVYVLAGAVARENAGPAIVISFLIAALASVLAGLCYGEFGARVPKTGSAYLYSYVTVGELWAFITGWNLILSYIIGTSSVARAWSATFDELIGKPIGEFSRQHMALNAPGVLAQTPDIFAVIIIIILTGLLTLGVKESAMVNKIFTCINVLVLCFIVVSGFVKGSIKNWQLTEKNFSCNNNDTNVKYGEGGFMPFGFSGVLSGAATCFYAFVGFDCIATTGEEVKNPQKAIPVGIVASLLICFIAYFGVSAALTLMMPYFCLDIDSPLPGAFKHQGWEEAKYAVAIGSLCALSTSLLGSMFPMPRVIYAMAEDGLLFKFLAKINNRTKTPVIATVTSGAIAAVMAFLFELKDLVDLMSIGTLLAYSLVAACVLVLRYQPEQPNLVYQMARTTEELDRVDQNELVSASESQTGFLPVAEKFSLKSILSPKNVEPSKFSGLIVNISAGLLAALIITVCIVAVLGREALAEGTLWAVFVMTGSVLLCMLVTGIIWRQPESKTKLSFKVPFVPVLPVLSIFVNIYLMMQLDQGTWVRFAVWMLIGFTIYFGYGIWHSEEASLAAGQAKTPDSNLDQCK
Moloney MLV ecotropic envelope glycoprotein (control envelope MO), sequence (P03385 34-665 limits assumed): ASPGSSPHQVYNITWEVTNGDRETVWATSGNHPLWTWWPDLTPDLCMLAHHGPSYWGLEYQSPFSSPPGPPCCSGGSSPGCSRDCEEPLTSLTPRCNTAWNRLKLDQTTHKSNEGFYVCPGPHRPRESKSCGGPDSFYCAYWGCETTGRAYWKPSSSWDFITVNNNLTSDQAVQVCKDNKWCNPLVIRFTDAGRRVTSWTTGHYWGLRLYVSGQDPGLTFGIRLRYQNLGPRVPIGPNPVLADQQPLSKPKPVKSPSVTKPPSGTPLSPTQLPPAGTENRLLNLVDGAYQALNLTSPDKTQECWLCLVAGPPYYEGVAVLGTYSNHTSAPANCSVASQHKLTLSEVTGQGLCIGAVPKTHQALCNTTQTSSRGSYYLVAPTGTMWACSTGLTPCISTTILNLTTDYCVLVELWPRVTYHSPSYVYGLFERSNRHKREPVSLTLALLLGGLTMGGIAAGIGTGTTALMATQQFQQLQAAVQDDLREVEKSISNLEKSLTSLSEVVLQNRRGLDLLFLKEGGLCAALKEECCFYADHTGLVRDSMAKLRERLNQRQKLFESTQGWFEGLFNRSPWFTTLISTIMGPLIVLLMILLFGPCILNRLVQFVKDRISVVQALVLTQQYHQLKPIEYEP
amphotropic MLV receptor on NIH3T3 mouse fibroblasts (mouse), sequence (Q80UP8 whole entry): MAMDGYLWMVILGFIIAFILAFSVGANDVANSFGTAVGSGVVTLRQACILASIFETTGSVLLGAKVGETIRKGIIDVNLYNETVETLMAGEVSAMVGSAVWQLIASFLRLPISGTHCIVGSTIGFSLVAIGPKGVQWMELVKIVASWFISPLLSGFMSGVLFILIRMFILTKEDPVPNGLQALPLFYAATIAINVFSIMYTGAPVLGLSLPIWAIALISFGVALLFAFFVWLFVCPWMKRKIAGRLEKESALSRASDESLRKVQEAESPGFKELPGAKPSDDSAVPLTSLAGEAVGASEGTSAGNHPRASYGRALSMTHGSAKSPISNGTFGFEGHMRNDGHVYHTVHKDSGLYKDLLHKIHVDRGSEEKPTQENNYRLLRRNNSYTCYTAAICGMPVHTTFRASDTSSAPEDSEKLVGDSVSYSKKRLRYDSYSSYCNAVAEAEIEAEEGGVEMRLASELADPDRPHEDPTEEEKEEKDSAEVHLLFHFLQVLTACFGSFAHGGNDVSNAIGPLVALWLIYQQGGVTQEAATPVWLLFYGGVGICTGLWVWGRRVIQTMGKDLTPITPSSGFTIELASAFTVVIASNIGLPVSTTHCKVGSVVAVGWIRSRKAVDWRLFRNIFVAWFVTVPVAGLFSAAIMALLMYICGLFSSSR
amphotropic receptor on human B and T cell lines (K422 and Jurkat) (human), sequence (Q08357 whole entry): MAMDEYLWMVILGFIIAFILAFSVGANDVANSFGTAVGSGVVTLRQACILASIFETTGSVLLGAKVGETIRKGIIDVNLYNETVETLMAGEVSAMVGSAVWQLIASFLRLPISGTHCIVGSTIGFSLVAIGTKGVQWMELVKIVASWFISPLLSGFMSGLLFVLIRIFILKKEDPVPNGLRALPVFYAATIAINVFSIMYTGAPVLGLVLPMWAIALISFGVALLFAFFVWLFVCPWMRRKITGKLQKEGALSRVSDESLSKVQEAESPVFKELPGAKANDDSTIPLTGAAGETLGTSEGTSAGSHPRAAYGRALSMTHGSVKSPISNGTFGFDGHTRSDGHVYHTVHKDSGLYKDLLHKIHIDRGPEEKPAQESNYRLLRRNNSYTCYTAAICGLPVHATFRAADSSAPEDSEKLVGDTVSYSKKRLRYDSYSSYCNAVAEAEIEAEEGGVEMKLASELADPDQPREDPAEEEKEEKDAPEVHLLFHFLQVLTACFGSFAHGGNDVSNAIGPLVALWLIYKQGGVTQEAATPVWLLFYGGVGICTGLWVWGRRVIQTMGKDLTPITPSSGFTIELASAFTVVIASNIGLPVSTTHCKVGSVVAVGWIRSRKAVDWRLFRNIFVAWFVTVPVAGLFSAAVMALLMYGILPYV

For the substance “Moloney MLV ecotropic envelope glycoprotein (control envelope MO) (from UniProt P03385 34-665)”, in assay [1], the titre on 3T3 (NIH3T3), lacZ-EFU/ml worked out at 1e+07 lacZ-EFU/ml; the titre on 3T3/A (GP+EAM12, expressing amphotropic envelope), lacZ-EFU/ml is 1e+07 lacZ-EFU/ml; the titre on 3T3/E (psi2, expressing MoMLV envelope), lacZ-EFU/ml was < 1 lacZ-EFU/ml; the titre on EJ.A1 cells, lacZ-EFU/ml was 1e+06 lacZ-EFU/ml.

For “amphotropic 4070A MLV envelope glycoprotein (control envelope A)”, in assay [2], the titre on 3T3 (NIH3T3), lacZ-EFU/ml (row shifted by one column) worked out at 1e+07 lacZ-EFU/ml; the titre on 3T3/A (GP+EAM12, expressing amphotropic envelope), lacZ-EFU/ml (row shifted by one column) was 100 lacZ-EFU/ml; the titre on 3T3/E (psi2, expressing MoMLV envelope), lacZ-EFU/ml (row shifted by one column) was 1e+07 lacZ-EFU/ml.

As to “chimaeric EGF-4070A (EA) envelope glycoprotein (human EGF fused to the amphotropic 4070A MLV envelope at position +5) (from UniProt P03385 34-39; P01133 23-1207)”, in assay [3], the inhibition of viral infection by EGF receptor expression on NR6 cells was 100 fold; the titre on NR6-wt hEGF.R cells, + rEGF (pre-incubated with recombinant EGF), lacZ-EFU/ml was determined as 500000 lacZ-EFU/ml; the titre on NR6-wt hEGF.R cells, - rEGF, lacZ-EFU/ml stood at 3000 lacZ-EFU/ml; the titre reduction on EGF receptor-positive human cells compared to control viruses with unmodified 4070A envelopes is < 1e+07 fold. Besides, in assay [4], the titre on Jurkat cells (devoid of EGF.R), lacZ-EFU/ml was 1000 lacZ-EFU/ml and the titre on K422 cells (devoid of EGF.R), lacZ-EFU/ml came to 10000 lacZ-EFU/ml.

Consider “chimaeric EMO envelope glycoprotein (human EGF inserted in the Moloney MLV envelope SU glycoprotein at amino acid +6) (from UniProt P03385 34-39; P01133 23-1207; P03385 40-469)”, for which, in assay [3], the titre on A431 cells with chloroquine, lacZ EFU/ml was determined as 225 lacZ EFU/ml; the titre on NR6-wt hEGF.R cells, + rEGF (pre-incubated with recombinant EGF), lacZ-EFU/ml was found to be 100000 lacZ-EFU/ml; the titre on NR6-wt hEGF.R cells, - rEGF, lacZ-EFU/ml turned out to be 1000 lacZ-EFU/ml; the titre on TE671 cells with chloroquine, lacZ EFU/ml came out at 46 lacZ EFU/ml. For the same substance, in assay [1], the titre on 3T3 (NIH3T3), lacZ-EFU/ml is 100000 lacZ-EFU/ml; the titre on 3T3/A (GP+EAM12, expressing amphotropic envelope), lacZ-EFU/ml was 100000 lacZ-EFU/ml; the titre on 3T3/E (psi2, expressing MoMLV envelope), lacZ-EFU/ml is < 1 lacZ-EFU/ml. Besides, in assay [5], the reduction of virus titre by EGF.R expression on mouse fibroblasts was < 1000 fold; the titre on NIH3T3 cells with EGFR No. 10,000, lacZ-EFU/ml worked out at 100000 lacZ-EFU/ml; the titre on NIH3T3 cells with EGFR No. 80,000, lacZ-EFU/ml turned out to be 10000 lacZ-EFU/ml; the titre on NIH3T3 cells with EGFR No. 400,000, lacZ-EFU/ml was 1000 lacZ-EFU/ml.
